Key:
[1] = test system: U2OS cells; experiment: Apoptosis (sub-G1) by FACS in U2OS cells; assay type: cell-based; conditions: U2OS cells, expression vectors 48 h; relative to wild-type E2F-1; n=2
Description: Whether arginine methylation influences E2F-1-dependent apoptosis was investigated by comparing the ability of wild-type E2F-1 to the KK and KKK mutants to induce cells with a sub-G1 DNA content (Stevens et al 2003). […] U2OS cells were transfected with expression vectors encoding wild-type E2F-1, KK and KKK as indicated for 48 h and analysed by FACS as described. The graph represents the relative change in sub-G1 populations compared to the empty vector control treatment; n=2.
The graph (i) represents the relative number of sub-G I cells (compared to the control treatment) in the indicated conditions; and (ii) the level of PRMT5 and E2F-1; n=3.
PRMT5 (P) or control (C) non-targeting siRNA (25 nM) was transfected into HCT116 p53+/+ (i), HCT116 p53−/− (ii) or U2OS (iii) cells and the cells were harvested 72 h post-transfection and analysed by FACS. The graph represents the actual number of sub-G1 cells in the indicated conditions, and the immunoblot the level of PRMT5 and actin control; n=3.
PRMT5 (P), E2F-1 (E) or control (C) non-targeting siRNA was transfected into U2OS cells and harvested 72 h post-transfection and analysed by FACS as described.
Cells were transfected with the indicated expression vectors together with pBB14-GFP (for 48 h) to monitor transfection efficiency or siRNA (for 48 h or 72 h) with or without treatment of the DNA damage agent for the last 16 h. Then, cells were fixed and stained with propidium iodide and analyzed by Flow Cytometry.

[2] = molecular target: T1, PRMT5 (Homo sapiens, UniProt O14744); experiment: Co-immunoprecipitation of ectopic E2F-1 with PRMT5 in U2OS cells; assay type: cell-based; parameters: The indicated GST proteins were incubated with U2OS cell lysate; endogenous in cells; host or cells: U2OS; conditions: expression vector transfected into U2OS cells, HA11 IP
Text: To establish whether E2F-1 was able to bind to PRMT5 in cells, the interaction between ectopic wild-type E2F-1 or KKK with PRMT5 was studied. […] Either a wild-type E2F-1 expression vector or a KKK expression vector was transfected into U2OS cells, and HA11 antibody was used for immunoprecipitation (IP) followed by immunoblotting with HA11 (E2F-1), PRMT5 or DP-1 as indicated. The level of input (In) protein is indicated. […] In contrast, binding to DP-1 was equivalent for both wild-type E2F-1 and KKK. […] Further, the RGRGR motif is necessary for the interaction, which also encompasses the site of PRMT5 methylation.
Cells were either left untransfected or transfected with expression vectors as indicated. At 48 h post transfection, cells were harvested in TNN buffer (50 mM Tris-HC1 [pH 7.4], 150 mM NaCl, 5 mM EDTA, 0.5% Ipegal, 50 mM NaF, 0.2 mM sodium orthovanadate and protease inhibitor cocktail (1 mM PMSF, leupeptin [1 μg/ml], aprotinin [1 μg/m1], and pepstatin A [1 μg/ml])) and rotated at 4° C. for 30 min to 1 h. The cell lysate was then homogenised, centrifuged at 11000 rpm for 10 min to remove cell debris and the supernatant collected. All lysates were normalized for protein concentration and, where appropriate, for transfection by β-galactosidase activity. […] Enhanced chemi-luminescence (Pierce Biotechnology, Rockford, Ill.) was used to visualize antibody binding.
Target sequence in this assay (O14744 whole entry): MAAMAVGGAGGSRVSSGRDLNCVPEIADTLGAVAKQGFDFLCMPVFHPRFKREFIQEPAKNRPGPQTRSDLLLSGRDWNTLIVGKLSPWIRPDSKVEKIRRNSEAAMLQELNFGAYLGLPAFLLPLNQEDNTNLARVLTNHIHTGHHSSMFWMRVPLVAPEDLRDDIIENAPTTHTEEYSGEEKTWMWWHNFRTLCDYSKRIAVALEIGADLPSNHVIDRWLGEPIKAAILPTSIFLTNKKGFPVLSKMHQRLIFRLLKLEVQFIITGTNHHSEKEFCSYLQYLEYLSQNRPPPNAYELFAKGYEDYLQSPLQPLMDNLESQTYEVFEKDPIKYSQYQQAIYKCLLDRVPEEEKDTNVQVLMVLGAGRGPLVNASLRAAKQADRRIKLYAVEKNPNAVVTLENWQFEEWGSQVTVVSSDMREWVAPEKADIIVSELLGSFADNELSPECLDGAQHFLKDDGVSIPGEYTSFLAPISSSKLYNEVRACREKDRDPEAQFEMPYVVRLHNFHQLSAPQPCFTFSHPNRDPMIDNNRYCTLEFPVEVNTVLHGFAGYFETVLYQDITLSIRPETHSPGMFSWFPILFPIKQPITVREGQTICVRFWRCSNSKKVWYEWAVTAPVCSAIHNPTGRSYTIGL

[3] = molecular target: T1, PRMT5; experiment: In vitro methyltransferase assay of E2F-1 proteins; assay type: biochemical; parameters: made in house; host or cells: U2OS cells (transient transfection, anti-Flag immunoprecipitation, elution); conditions: about 1 μg protein, 3H labeled SAM; mutants compared with wild-type E2F-1
Description: To assess whether the RGRGR motif was a direct target for PRMT5 methylation, a series of mutant derivatives of E2F-1 were made in which each arginine (R) residue was substituted with a lysine residue (K; FIG. 1a), and the ability of the mutant derivative to be methylated in vitro then assessed. […] In FIG. 1b(i) each of the indicated proteins (about 1 μg) was used in the methylation reaction. In vitro methylated samples were analysed by SDS-PAGE as described below. E2F-1 is indicated. In FIG. 1b(ii) samples in FIG. 1b(i) were counted (3H cpm as indicated). Histones treated with PRMT5 served as the positive control. The data shown provide one example taken from two different experiments.
Flag-PRMT5 plasmid was transfected into U2OS cells for 48 h. Cells were lysed and Flag-PRMT5 was immunoprecipitated with agarose beads and then eluted. The elute was mixed with recombinant substrates (GST fusion proteins or histones) in methylation reaction buffer (50 mM Tris, 0.1 mM EDTA, 50 mM NaCl) with ^3H labeled SAM (as —CH3 group donor) to a volume of 40 μl and incubated at 30° C. for 90 min. Half of the reactions were then spotted onto p81 membrane circles (Whatman) and air dried. The membranes were then washed three times, 5 min each in 50 ml of wash buffer (46 mM NaHCO3, 4 mM Na2CO3, pH 9.2). After washing briefly with acetone, membranes were air dried, placed in scintillation vials, immersed in scintillation fluid (Beckman Coulter) and disintegrations per minute (DPM) measured in a scintillation counter. The other half of the reactions were run on SDS-PAGE gel and used to detect ^3H auto-radioisotope/methylation signal.
Target sequence in this assay (O14744 whole entry): as above
Target sequence in this assay (Q9BQA1 whole entry partner): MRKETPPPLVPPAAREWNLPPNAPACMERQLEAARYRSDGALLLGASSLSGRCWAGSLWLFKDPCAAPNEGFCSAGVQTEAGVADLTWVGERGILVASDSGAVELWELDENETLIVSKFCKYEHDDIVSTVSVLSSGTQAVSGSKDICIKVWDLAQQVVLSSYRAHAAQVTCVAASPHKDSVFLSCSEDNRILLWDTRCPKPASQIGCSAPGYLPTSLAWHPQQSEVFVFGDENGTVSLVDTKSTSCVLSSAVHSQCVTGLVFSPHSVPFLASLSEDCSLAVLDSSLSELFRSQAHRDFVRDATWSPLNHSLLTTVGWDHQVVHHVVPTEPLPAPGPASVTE

[4] = molecular target: T1, PRMT5; experiment: GST binding assay with U2OS cell lysate, PRMT5 immunoblot; parameters: The indicated GST proteins were incubated with U2OS cell lysate; endogenous in cells; host or cells: U2OS; conditions: GST-E2F-1 proteins incubated with U2OS cell lysate
Description: It was then assessed whether E2F-1 could interact with PRMT5 and thereafter the role of each R residue in mediating the interaction. […] The indicated GST proteins were incubated with U2OS cell lysate, and bound proteins immunoblotted using anti-GST (for input GST), DP-1 or PRMT5 antibodies. Binding to DP-1, the major heterodimeric partner for E2F-1 (Stevens and La Thangue 2003), served as a control since it bound equally to each of the E2F-1 proteins.
GST or GST tagged proteins (10 μg each) were incubated with agarose beads and damaged or undamaged U2OS cell lysates for 3 h. Beads were then washed with TNN buffer 3 times. SDS sample buffer was added to beads and samples were analysed by immunoblotting.
Target sequence in this assay (O14744 whole entry): as the sequence (O14744 whole entry) above

## KKK: methylation-defective E2F-1 protein containing the mutations R109K, R111K and R113K
[1]
  apoptosis (sub-G1 population): increased levels of apoptosis
[2]
  co-immunoprecipitation with PRMT5: not apparent
[3]
  in vitro methylation by PRMT5: could not be methylated by PRMT5
[4]
  binding to PRMT5: completely devoid of PRMT5 binding

From US8841274B2, “Protein arginine N-methyltransferase-5 method of cancer treatment” (priority 2009, dated 2014)
